Target: T1, fibrin (Homo sapiens, UniProt P02671)
T1 construct: purchased Enzyme Research Laboratories (South Bend, Ind.); host or cells: fibrin generated in the well or tube from the purchased fibrinogen with bovine thrombin
T1 sequence (P02671 36-629 limits assumed): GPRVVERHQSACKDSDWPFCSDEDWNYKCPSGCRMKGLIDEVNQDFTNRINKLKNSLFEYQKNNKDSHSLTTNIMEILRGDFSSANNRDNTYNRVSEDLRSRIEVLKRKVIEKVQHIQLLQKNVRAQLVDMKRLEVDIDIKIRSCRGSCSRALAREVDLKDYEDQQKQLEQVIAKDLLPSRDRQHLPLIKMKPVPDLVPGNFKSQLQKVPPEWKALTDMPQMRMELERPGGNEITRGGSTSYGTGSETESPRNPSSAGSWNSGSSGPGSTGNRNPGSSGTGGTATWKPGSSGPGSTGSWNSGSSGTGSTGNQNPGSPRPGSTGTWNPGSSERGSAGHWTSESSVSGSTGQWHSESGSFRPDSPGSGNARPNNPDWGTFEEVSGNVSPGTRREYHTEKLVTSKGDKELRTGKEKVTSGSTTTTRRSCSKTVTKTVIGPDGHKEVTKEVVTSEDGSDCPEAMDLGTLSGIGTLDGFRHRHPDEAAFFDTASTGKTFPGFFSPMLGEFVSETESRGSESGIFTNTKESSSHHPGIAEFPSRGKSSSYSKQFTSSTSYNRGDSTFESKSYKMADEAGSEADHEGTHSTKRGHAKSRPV
T1 sequence (P02675 45-491 partner limits assumed): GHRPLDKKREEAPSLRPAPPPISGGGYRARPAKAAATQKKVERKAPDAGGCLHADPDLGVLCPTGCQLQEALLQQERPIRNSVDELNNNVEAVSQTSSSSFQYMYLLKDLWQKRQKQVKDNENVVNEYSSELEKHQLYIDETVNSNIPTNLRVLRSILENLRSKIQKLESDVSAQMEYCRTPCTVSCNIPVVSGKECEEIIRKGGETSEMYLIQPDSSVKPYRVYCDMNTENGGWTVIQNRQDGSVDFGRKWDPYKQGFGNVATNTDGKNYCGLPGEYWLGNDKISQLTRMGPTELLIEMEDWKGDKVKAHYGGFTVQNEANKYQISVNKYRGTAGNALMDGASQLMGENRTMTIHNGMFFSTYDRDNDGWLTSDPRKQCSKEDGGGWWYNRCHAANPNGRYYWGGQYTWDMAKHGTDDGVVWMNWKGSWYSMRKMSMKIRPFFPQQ
T1 sequence (P02679 27-437 isoform P02679-2 partner limits assumed): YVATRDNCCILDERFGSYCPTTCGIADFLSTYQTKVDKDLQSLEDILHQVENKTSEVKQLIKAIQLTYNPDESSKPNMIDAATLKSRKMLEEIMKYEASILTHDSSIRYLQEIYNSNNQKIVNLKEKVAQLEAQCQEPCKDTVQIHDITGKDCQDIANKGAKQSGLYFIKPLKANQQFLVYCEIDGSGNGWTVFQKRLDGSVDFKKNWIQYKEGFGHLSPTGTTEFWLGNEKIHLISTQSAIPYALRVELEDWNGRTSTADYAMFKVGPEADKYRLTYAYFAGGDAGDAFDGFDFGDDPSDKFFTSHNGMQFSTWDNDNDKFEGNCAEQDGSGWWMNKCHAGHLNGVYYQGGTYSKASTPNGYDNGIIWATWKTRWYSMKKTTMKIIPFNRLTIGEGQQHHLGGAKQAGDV
Test: Solid-phase binding assay (ELISA), immobilized fibrin
Experimental: The interaction between thymosin β4 and fibrin(ogen) and its fragments in the presence or absence of FXIIIa was studies by ELISA using plastic microliter plates. Wells of microliter plates were coated overnight at […] with fibrinogen and fibrin at 10 μg/mL or with the recombinant fragments of 20 μg/ml, all in 0.1 M NaHCO3 buffer, pH 8.3. Fibrin was made by addition to the wells of a mixture containing 10 μg/mL fibrinogen 1 NIH u/ml thrombin and 400 u/ml aprotinin, followed by overnight incubation at +4° C. The wells were then blocked by incubation with Super Blocker (Pierce) at 37° C. for 1 h. Following washing with TBS containing 0.05% Tween-20 (TBS-Tween), the indicated concentrations of thymosin β4, FXIII, FXIIIa(Thr) and FXIIIa(Ca) were added to the wells and incubated for 2-2.5 h at 37° C. Bound (incorporated) thymosin β4 was detected by the reaction with rabbit anti-thymosin β4 serum and peroxidase-conjugated anti-rabbit IgG. A TMB Microwell Peroxidase Substrase was added to the wells, and the incorporated thymosin β4 was measured spectrophotometrically at 450 nm.

- non-covalent interaction with immobilized fibrin (ELISA signal) (absence of factor XIII or non-activated factor XIII): no significant non-covalent interaction
- factor XIIIa-mediated incorporation into immobilized fibrin (ELISA signal) (factor XIII activated by CaCl2): higher than that into fibrinogen
Substance: thymosin β4
